Laboratory results taken from the DeepSol protein solubility set.

Test: soluble on expression in E. coli; label from the status in PepcDB or PDB records
For “MGSDKIHHHHHHMEGKVKKAFPGGNTSQGSYSFFDYIIPENVKRVFCLKGGPGVGKSSLMKKIYKEFLHRGYDIDLYHCPSDPSSLDGLVIKKLGVVLMDATAPHTMDPKLPGALDEIINLGDYWNTEELEKNKQEISVYDKDISNSFKRAFKFLKSAEPIFRDIEEKYSDCMDYGKVNLVTEEFIKRLFDGVKSTGNLKREKHLFGSAITPVGCLDYTENILKDVKKVYYLDGEIGTGKTTLLNKVYKKAIEKGLNVEVYHYPLIPEKIETVLLTDLDIGITISTTFKEEDTIDLNQFLNREKLLKYEEDIKFDEKVLDDLICWAVLNLKRAKSKHDIIESYYSPNMRFDEVGKLRDKLIKRILKYEENL”, the “soluble on expression in E. coli” value was “not soluble”.
For “MGSDKIHHHHHHMEHAQMSEKTTNELEKLREHIDSVDQQLLHLLRKRLDLVAQVGGVKHAAGVPIYAPQREASMLAKRREEAAKMNVSPQLIEDILRRLMRESYLNEKDVGFKQVKTDLGHVVIVGGQGKLGGLFAQMLSLSGYQVKSLDKDDWQQADAIFDGAGMVIVTVPISITCELIRDKLTSLPSSCILADLTSIKEKPLEAMLASHQGPVVGLHPMFGPDVGSLAKQVVVVCHGRGREQYEWLLEQIGIWGARLVEADAQQHDKAMQLVQAMRHFSSFVYGLNLYREAADIDNLLQFSSPIYRLELAMVGRLFAQSPELYADIIFAQQESLTAIGDYLDNYAQALELLKRGDRQGFIREFEEVAAWFGDFAPQFQRESRAMLQSVNDMKTG”, the “soluble on expression in E. coli” value was “not soluble”.
With “MGSDKIHHHHHHMEHFLYRLNFSTALHIGKDAGGPSLDDGQMIIHADTLFAALCCEAVRGGRITQLVKYFADGILSISDALPYAGDEIFLPRPVLFTENRKRAGDSALAKALKNKDYIPLSFFGDYLKSMQQLDFNLESLKSESDFGYLTTLTRVAIKGNSPPLPYHVAAWRFADGCGLYIIVRSEQEEARTMFASLLAELGLSGIGGKQSSGWGKFEVKPGPVPDELLRLLEDKQAEYQMLMGTALPVDNELDTVLLNGWYKLLRRGGFIRSESYAARQMKKKTIYMLASGSCLRSRFKGAMLDLSDNGAHPVWRCGNTLFVGVTI” the “soluble on expression in E. coli” value was “not soluble”.
For “MGSDKIHHHHHHMEIEIATIGGYEEVGRQMTAVRAGDDIVIFDMGLNLSKVLVHDNVETEKMHSLDLIDMGAIPDDRVMSDLEGDVKAIVPTHGHLDHIGAISKLAHRYDAPIVGSPFTIELVKGEIESEQKFGVENDLVKMEAGGTMEIGDRCELEFVHVTHSIIDAINPVLHTPEGAVVYGLDKRMDHDPVLEDPIDMERFREIGREGEGVLCYIEDCTNAGKKGRTPSESTARRHLKDVLTSVADYDGGIVATTFSSHISRVSSLVEFAKEIGREPILLGRSMERYSGTAERMGRVNFPDDLGMFGHRKSVDRAFKRVMNEGKENFLPIVTGHQGEPQAMLTRMGRGETPYDIEDGDKIIFSASVIPEPTNKGQRYQSEQLLRMQGARIYDDIHVSGHLREEGHYQMLDALQPQHLIPAHQDMKGMAPYAKLAKSQGYKIGRDLHMTENGNTIQLVE”, the “soluble on expression in E. coli” value was “not soluble”.
In the case of “MGSDKIHHHHHHMEKLYEIYTGGAEDSFEVGKLLFEENSWQLYLTLDELGRDDSLLLIRKPAVTRLLDQSDYLAEIQRRRKMLTQKGLADPFKLEDKVTLIKSVGSFMDLLPGQVVYFGLEGEDYQQWGYIDEISAGQVNFAAYPSGKYRPFAGEVAVSQLRRLAAFSGEWLLDNPKLRDTEDTTVDGLREVHLKEDPASFAVGRLLCADDDFSLYLTVDEIGRDDSLLLVKKLAVDRVIDQSEYLQDTSRCRRQLKEKGLEDPFEVQGKAANIKQMQDFWRLAAGQVVSFVMKDEEEAEYGILKSKEGDALSFGQYPSGKYETFAGQISLVEVDRLEAFGGELTLENNNC”, the “soluble on expression in E. coli” value is reported as “not soluble”.
With “MGSDKIHHHHHHMELPCSLLCFVETLAVLRRSKSLSNEIIATGSRLVAGPSGAQDRAMTATRYDKNAKNVLGQELVPCSLDPVTGFYRNGCCETGPHDLGLHTVCAVMTRDFLAFSKAQGNDLSTPRPDLAFPGLKPGDRWCLCAGRWKEALDAGMAPQVVLEATHEEMLAVVPLGVLKDHAAA” the “soluble on expression in E. coli” value was “not soluble”.
With “MGSDKIHHHHHHMELQLQNLALSFKNKPNVIHDISLTMNGGSIVGIVAPNGTGKTTLLRLILNDLKPQAGKVLVDGKSYGSQKQSLALHRQMCLFPVQDDLYPDLSGKAHLEYYAKLWHNRSKSVKQIINVLDMRDYINQPVRTYSMGMKQRLCFGMVMAANTPIMLLDEFMNGLDTINVARMSRILRGLRAEGKLIITVSHLLNNLQGYADLIYFMRDGKIIKTIDQHEQQPLYVQVAEENASRLPRMPWEHYPNGMLVLPIQKLPGEHFNQLLLGLAAHHIPFKLGPLDLDTYFNEFYETDQ” the “soluble on expression in E. coli” value was “not soluble”.
With “MGSDKIHHHHHHMELVYKITYHRIQAHYLPKLVQAVQFVSEENLWKQGESVNSIGGIVLHICEHMQRNTSRYKNPNIVFEKGIEEYFPTKRQHTEVLLQYVEKVFDEWGKAYIQAWEEKRHIELHSLLHLVEHTSYHLGQIVDRTKLIKGQQFNFCQNGINEKNLRTRVETSKF” the “soluble on expression in E. coli” value was “not soluble”.
In the case of “MGSDKIHHHHHHMENERKRILELVKQGIISTEEALTLLENISKKEGKTAAKENIRRSAAPREEEQVEEETKEEPSYDYSKGWNNQGNPYTPPKSRKRRPEPTPENHERDEEEGGENSSKDREDSMRNMVNDLSQAGEKIGSFLNSAFKQVKDMPFPFLTSTKIERDFIYHDTTLSILEFEIANGNIEFKPSDSNDIKVHAMIKLFKEYPEDEALKIFFDKTTLRVDEETLRFESKSKQIVTNLTVYLPRREYDYVSVKMLNGNFHMDELSGRDLFVKTTNGNISIGTLNATLAEIESINGNVRIQNGEIRDVALKTFNGNVAVKGNYYSTNLQTKNGNVNYQLTGNEATFLKAKTGAGNIDVVVPAAIGVDGRFHTNLGKLLLDLKDAEILESKTESVSKSIIFTKLPDAADSSLKIEAEATTGSVKIRDVK”, the “soluble on expression in E. coli” value is reported as “not soluble”.
For “MGSDKIHHHHHHMENKLLVFLEAIQQHNSMTKAAQSLFISQPYISRTIKSAETHFGTPLIDRGHHPLELTYAGERLLTYLQSDARLHQRMNTELKEISQNKYQSMTIGITPPMANAWFSQTLPAFYQRFPNIRTKILEITTSKAETLLASHQLDFFIGKTIHQTNVKTIPLQTISLSLVIPKTAGIYQSNQFWRPFTPTILTGMTGEPVIRAVGEARFQELVDHYFADKGIQTIPLIEVDNSRFALSLTLQGLGSIVLATAMLARLATEPAKYPINAFKLPTSELSLDFSIAYLPSHVLAKPIAYLVEQACQTFNPAIDF”, the “soluble on expression in E. coli” value was “not soluble”.
In the case of “MGSDKIHHHHHHMENLKTYFYTEDGVVKAVDGVSFEVREGETLGIVGESGSGKSVTSLSIMRLLDQNGKIVDGKIIFKGRNLLELSENEMRKIRGKEIAMIFQEPMVALNPVFTIGDQIMEAIILHQNVSEKEARKMAIDLLRKVGIPEPEKRVDEYPHQLSGGMRQRAMIAMALSCRPSLLIADEPTTALDVTIQAQILELMKELQKEYGMAIILITHDMGVVAEMSDKVAVMYAGKVVEYGDVKTIFTEPKHPYTYALLESIPRIDVEQERLKSIPGNVPDPLNFPPGCKFHPRCEFFEKGKCDVEEPELEDLDGNHKVRCFFWQKLDEMRHAKSEV”, the “soluble on expression in E. coli” value is reported as “not soluble”.
For “MGSDKIHHHHHHMERSDAAMQPDAVSRPEIVMATRGITMLFPGTKALDNVDYNVYRGKVNVIIGENGAGKSTLMKILAGVQQPTSGQILLNGEAVRIADTRDAAAKGIGMVHQELNLSENLSVAENIFLGRELQKGVAPIDYLEQERIAAELMSRLDQAISPRTEVASLKVGQQQLVEIAKALADQADILILDEPTSALSKTEVEILFRVIRELTRQNVSIIYISHRLEELMAIGDYITILRDGCFQAEAAVSDIDVPWIVREMLGGDPVTSFLHSGRTFGAPILEAEHLTCLNDAGHQVVNDVSLMVREGEIVGIYGLMGAGRTELFECLLGIQNDYLGKIYLDSKPVSPRLSTAQRIRMGMSLVPEDRKKTGIFPLSSVASNLTIASLWRRLKYGMAIFQRQEQEVVASTVGRLAIKVSSPEVEIQALSGGNQQKVVIGRSLLTSPKVLLLDEPTRGIDVGAKADVFEMMVGLSEQGIGVLFSTSDLKEIMAVSDRILVMSNGKLTANIVRQSASESALVSASAQGF”, the “soluble on expression in E. coli” value was “not soluble”.
For “MGSDKIHHHHHHMESLKKCFDLQGKEIVSIVGSGGKTSLMWALAKTYRKEAVLVSTTTKIGFPQRQLYDYFYTNHFEKITPNICGITLAGTAINNQTKLTMPAMTSFQTLFQHFTKVFLEADGSKQRPLKGWSSYEPVILKETTTTIGVLPISVIGQKIDETTIHRLPLFLELTDAQLQEPITETLLAQLIDHPKGLFKESQGQRILCLNQTHTRREFVQAMNVCLQLPKSCFEKLDKIIACNMELEKGLILWEKSVKTSKKN”, the “soluble on expression in E. coli” value was “not soluble”.
For “MGSDKIHHHHHHMEVFMITKRPIYNQQLKCVAFEILSCRNVMLNEELTRQLYDLIYHTDTQLPLFVPFSLKKLLEQFETPINNPIILKLSADEIESVYSLTELQDSLFSIALLINTPQQLAWLNFAEYIGLTEQLMSKSDVTKVVQYSKAKNRKIIAYDLNQHVNFEKCKAMTMDYYCGDFLLNSIAEEGTEIAANKLNVLQLIQELQKEDCDLNEITHIIQADPLLSYQLLKLVNSVGFSSGPSIESIDQAVARLGIINLKKWVMLFSMKNISDKPIEVLESGLIRAHMAEELAKKSSNIFSQSAYTAGLLSILDCLLNKPMPALVEQITLAEEIKDALTNKSGPLGDLLSLVIAYEEGHWEEVTQLNINGIDLSQLYIDSLALVSQGTKIMSN”, the “soluble on expression in E. coli” value was “not soluble”.
In the case of “MGSDKIHHHHHHMEVKPFRPLIYRKEIDGMIAPPFDAITPKEEVELKRNKYNITYLTLPKGRDGIPHAKMLLQSWLENGVLIPMKEDVFIVLRQRFYVGDECINRYGLIAKVKVFPESGDVIPHERTFDMYVKERETLMDGISSQLEPIFLVTLKNDLPGYLKAITDGLKEDNTYFGPENVENFVYYINDKRKINKIISLLAEDKSIVADGHHRLQATKNIAARKSGGEREFWSYAMAYITSIHDPGVLVGGVNRVVSNKFRLDMNVLSKYFEINQVERLDETNINLFNGRLYSLKIRIPVYDNLIDASNDFILSKSASMNYTDIENEVIYTHDIYELMSLVNSGSYSFGIILPRWDKMKLIETLLSGRKLPQKSTYFYPKIPSGLAIDTALELRLS”, the “soluble on expression in E. coli” value is reported as “not soluble”.
For “MGSDKIHHHHHHMEVLRTENLKSYYILDIFGKKRVVKAVDDVNISIMENEIYGIAGESGCGKSTLLRALFAAIEPPQRIVGGKVLYRENGKEVDVYSLSDEERRRLRWSFISYVPQGSMSVLNPVVKIKETFKDFIESHTTGKTKEEAYEMAKEHIKELGLPIEILNAYPHQLSGGMRQRVTIALATVLSPKVIIADEPTTALDVVTQRGVVQLLKEIQSSRQNTIILVTHDMGVHANVTDRIAIMYAGKIIEEGKTEEIFENPMHPYTKYLIYSLPKFGDKGRRESAPGSPPSLADLPPGCSFHPRCPHAFDRCKKEVPPLKEYLPGHRVACWLVEEGKNAAS”, the “soluble on expression in E. coli” value was “not soluble”.
In the case of “MGSDKIHHHHHHMEVQLPKIKTVRVMLAGMTAQQESVFKMAFKMHNTTRYETVSPSDGSAVPDLVLADTDAEGGFELWKELAGRYKAIPVAVCSEKVPDSEVPYLPKPIRFETLFPMLRKLLQGENVYGKSFIAPADRSAKNNGNVQRTVTIRQFNPNKGLLGALRFAEKNRQDIAILHGNKPVLNCFPLDTTGFADRKCVKTRRIVQRRKFAGQLQDCSR”, the “soluble on expression in E. coli” value is reported as “not soluble”.
For “MGSDKIHHHHHHMFFIRVDSNQTISGGHIMRCLAIAKALIINGKDVTFLIADDNPVEVLKQNRVSYVILNSDWQDLMSDLEQTIKVLSQENDPYLLIDTYCITKEYVEGLKAYAKVGYLGSKSEYLGNLDFLINYSSYIDYNYYKNNYFNGTKLLLGISYAPLRDEFQNQEPHYREQVRNILITTGNTDNDGMVGLLLDRLRYLLKEKNIIANVIIGRMFNNKELLHVKYDDNSNVKLYENVSSMSTIMRNCDLAISANGTTIYELSAMAIPTISFAMVEEQVKSAEGLDALRVIDYCGTSYTDVNKCVKAIIDKALYYIENYDNRIRLAQNAHNLIDGNGCQKIIDELF”, the “soluble on expression in E. coli” value was “not soluble”.
